Reference: patent publication US20210253725A1 (BIONTECH, published 2021)
Substitutions are numbered along the chain they refer to. Names and notes keep the numbering of the source.

T1: CD27 expressed on the cell surface (HT1080_CD27 cells) (human, UniProt P26842 20-260)
T1 sequence (looked up): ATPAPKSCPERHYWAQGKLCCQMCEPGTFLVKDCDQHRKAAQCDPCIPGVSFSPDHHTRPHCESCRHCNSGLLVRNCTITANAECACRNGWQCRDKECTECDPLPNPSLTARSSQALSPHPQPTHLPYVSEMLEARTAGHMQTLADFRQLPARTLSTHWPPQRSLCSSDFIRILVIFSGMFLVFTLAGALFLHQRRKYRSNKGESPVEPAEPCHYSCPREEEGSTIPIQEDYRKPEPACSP

T2: CD27 protein (His-tagged, Sino Biological Inc. 10039-H08B1) (human, UniProt P26842 20-192)
T2 construct: bought; coated onto ELISA plates; also called human CD27; recombinant protein; not shown: His tag
T2 sequence (looked up): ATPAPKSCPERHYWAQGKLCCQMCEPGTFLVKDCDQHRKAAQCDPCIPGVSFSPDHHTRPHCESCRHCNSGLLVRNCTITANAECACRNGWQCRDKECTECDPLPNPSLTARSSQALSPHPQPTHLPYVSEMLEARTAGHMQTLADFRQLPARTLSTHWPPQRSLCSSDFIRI

B1: P018.S.10.A.G05 (antibody, V domains shown)
VH: QSVEESGGRLVTPGTPLTLTCTVSGFSLNNAHMCWVRQAPGKGLEWIGIIGASGSTYYASWAKGRFTISKTSTTVDLKMTSLTTEDTATYFCGRTDVGYTTANLWGQGTLVTVSS
VL: DVVMTQTPASVSAAVGGTVTIKCQASQTISSYLSWYQQKPGQPPKRLIYSASTLASGVSSRFKGSGSGTQFTLTISDLESADAATYYCQAYDTTSGTDLWAFGGGTEVVVK
notes: V regions on human Ig constant parts; also called AB27_183
B2: P018.S.09.A.C06 (antibody, V domains shown)
VH: QSVEESGGRLVTPGTPLTLTCTVSGFSLSTYAMGWVRQAPGKGLEWIGIIYTGGSTYYASWAEGRFTISKTSTTVDLKITSPTPEDTATYFCTRDLGATYDYFDLWGQGTLVTVSS
VL: AYDMTQTPASVEVAVGGTVTIKCQASQSISTALAWYQQKPGQRPKLLIYDTSDLASGVPSRFSGSGSGTEFTLTISGVESADAATYYCQQGYRHTNVDNPFGGGTGVVVK
notes: V regions on human Ig constant parts; also called AB27_149
B3: P018.S.03.A.F02 (antibody, V domains shown)
VH: QSVEESGGRLVTPGTPLTLTCTVSGFSLSSNAMTWVRQAPGKGLEWIGFINTGGSTYYASWAKGRFTISKTSTTVDLKITSPTTEDTATYFCARDVGDSRGYYWGLWGQGTLVTVSS
VL: AYDMTQTPASVPAAVGGTVTIKCQASEDIYSLLAWYQQKPGQPPKLLIYDASDLASGVPSRFRGSGSGTDYTLTISGVESADAATYYCQQGYTTYTTVDNIFGGGTEVVVK
notes: V regions on human Ig constant parts; also called AB27_53
B4: P018.S.06.A.A03 (antibody, V domains shown)
VH: B3 VH with G54S, V96A, G97D
VL: B3 VL
notes: V regions on human Ig constant parts; also called AB27_96
B5: P018.S.01.A.F02 (antibody, V domains shown)
VH: QQQLVESGGGLVRPGASLTLTCKASGFSFSSGYYVCWVRQAPGKGLEWIACIFAGSGGGAGYATWAKGRFTISKTSSTTVTLQMTSLTAADTATYFCARPLSGYAYGMDLWGPGTLVTVSL
VL: DVVMTQTPASVSEPVEGTVTIKCQASQTISNYLAWYQQKPGQPPKLLIYGASTLESGVSSRFKGSGSGTQFTLTIYDLESADAATYYCQCTYDGSSDVGGAFGGGTEVVVK
notes: V regions on human Ig constant parts; also called AB27_19
B6: P018.S.03.A.B02 (antibody, V domains shown)
VH: QSLEESGGRLVTPGTPLTLTCTASGFSLSSYDMNWVRQAPGEGLEWIGTITTNSDTYYASWAKGRFTISKTSTTVDLKITSPTTEDTATYFCARGYTTFTLWGQGTLVTVSS
VL: DPVLTQTPSSASEPVGGTVTINCQASQNIYSNLAWYQQKPGQPPKLLIYGASTLESGVPSRFSGSGSGTQFTLTISDLESDDAATYYCQCTDYDSNYVVDFGGGTEVVVK
notes: V regions on human Ig constant parts; also called AB27_42
B7: P018.S.03.A.G02 (antibody, V domains shown)
VH: QSLEESGGDLVKPGASLTLTCTASGFSFSSGYDMCWVRQAPGKGLEWIACIYAGSNNNTYYASWAKGRFTISKTSSTTVTLQVASLTAADTATYFCARAAGGYADYAYVMGDYFNFWGPGTLVTVSS
VL: AYDMTQTPASVEVAVGGTVTIKCQASEDIYSILAWYQQKPGQRPKGLIYSASTLDSGVPLRFSGSGSGTEFTLTISGVQSDDAATYYCQQGYSSSNVDNVFGGGTEVVVK
notes: V regions on human Ig constant parts; also called AB27_56
B8: P018.S.04.A.D02 (antibody, V domains shown)
VH: QSLEESGGRLVTPGTPLTLTCTASGFSLSTYAMGWVRQAPGEGLEWIGNINTDSGDTWYARWAKGRFTISTTSSTTVDLKITSPTIEDTATYFCARNPGDDVNLWGQGTLVTVSS
VL: AQVLTQTPSPVSAAVGDTVTINCQASQSVYNNNDLAWFQQKPGQPPKLLIYRTSILASGVPSRFKGSGSGTQFTLTISDLESDDAATYYCQGYYSGVIYVFGGGTEVVVK
notes: V regions on human Ig constant parts; also called AB27_71
B9: P018.S.01.A.E06 (antibody, V domains shown)
VH: QSLEESGGDLVKPGASLTLTCTASGIDFSSSYYMCWVRQAPGKGLEWIGCIATGGGNTYYATWAKGRFTFSETSSTTVTLQMTSLTVADTATYFCARTYPSMWYFNLWGPGTLVTVSS
VL: DVVMTQTPASVSEPVGGTVTIKCQASQSIGFNLAWYQQKPGQPPNLLIYGVSTLTSGVSSRFKGSGSGTQFTLTISDLESADAATYYCQSFYAGSSAFGGGTEVVVK
notes: V regions on human Ig constant parts; also called AB27_18
B10: P018.S.08.A.D01 (antibody, V domains shown)
VH: QSVEESGGRLVMPGTPLTLTCTVSGFSLSTYVMGWVRQAPGKGLECIGVIYGGGTIWYASWAKGRFTISKTSTTMDLQITSPTTEDTATYFCARDGSSSGDPGFNLWGQGTLVTVSS
VL: DIVMTQTPASVSAAVGGTVTINCQASQSISNWVAWYQQKPGQPPKRLIYKASTLASGVPSRFKGSGSGTEFTLTISDLESADAATYYCQSTGSTAYGRAFGGGTEVVVR
notes: V regions on human Ig constant parts; also called AB27_137
B11: P018.S.03.A.A02 (antibody, V domains shown)
VH: QSVEESGGRLVTPGTPLTLTCTVSGFSLSSYDMTWVRQAPGEGLEWIGYINTDTTTYYASWAKGRFTISRTSTTVDLEITSPTTEDTATYFCARGNDPIYIDLWGQGTLVTVSS
VL: AAVLTQTPSPVSAAVGGTVSISCQSSKSVINNNWLGWYQQKPGQPPKLLISYASTLASGVPSRFSGSGSGTQFTLTISDVQSDDAATYYCAGAYSPDSENAFGGGTEVVLK
notes: V regions on human Ig constant parts; also called AB27_41
B12: P018.S.07.A.C04 (antibody, V domains shown)
VH: QEQLVESGGGLVQPEGSLTLTCTASGFSFSSRFWICWVRQAPGKGLEWIACIYGGSTSATYDASWAKGRFTISKTSSTTVTLQMTSLTAADTATYFCTRLPTYDAYVFNLWGPGTLVTVSS
VL: AIVMTQTPSSKSVPVGATATINCQASESVFSNNYLSWYQQKPGRSPKLLIYEASKLASGVPSRFSGSGSGTQFTLTISDVVSDDAATYYCGGYKSNNVDGYAFGGGTEVVVK
notes: V regions on human Ig constant parts; also called AB27_120
B13: P018.S.07.A.B05 (antibody, V domains shown)
VH: QSLEESGGDLVKPGASLTLTCTASEFSFSNNYYICWVRQAPGKGLEWIACIYVHSGTTDYATWAKGRFTISRTSSTTVTLQMTSLTVADTATYFCARGRSGYYADAFDTWGPGTLVTVSS
VL: ALDMTQTPSPVSAAVGGTVTINCQASQSVYNNNNLAWYQQKPGQPPKLLIYLASNLASGVPSRFKGSGSGTQFTLTISEIQSDDAATYYCQGTDSSSGWEHAFGGGTEVVVK
notes: V regions on human Ig constant parts; also called AB27_117
B14: P018.S.07.A.H02 (antibody, V domains shown)
VH: QEQLVESGGGLVQPEGSLTLTCKASGFDFSSDAMCWVRQAPGKGLEWIACIYVGSVGSSWYASWAKGRFTISKSSSTTVTLQVTSLTAADTATYFCARGENIAYFTFWGPGTLVTVSS
VL: DIMMTQTPASVSAAVGGTVTIKCQASQSINSWLSWYQQKPGQPPKLLIYKASTLASGVPSRFEGSGSGTEFTLTISDLESADAATYYCQGYYYYSSSNFASNAFGGGTEVVVK
notes: V regions on human Ig constant parts; also called AB27_131
B15: P018.S.07.A.A05 (antibody, V domains shown)
VH: QEHLEESGGDLVKPGASLTLTCKASGFDLSINVMCWVRQAPGKGPEWIVCIDNGDGSTYYASWVNGRFTISKTSSTTVTLQMTSLTAADTATYFCARPGTFTYGGNTYPGSFVLWGPGTLVTVSS
VL: AFELTQTPSSVEAAVGGTVTINCQASQSISNALAWYQQKPGQPPKLLIYTASNLASGVPSRFKGSGSGTQFTLTISDLESADAATYYCQNYYVNIIGIGFGGGTEVVVK
notes: V regions on human Ig constant parts; also called AB27_114
B16: P018.S.10.A.H01 (antibody, V domains shown)
VH: QEQLEESGGDLVKPGASLTLTCTASGFSFSSDYDMCWVSQAPGKGLEWIACIIGGSSDSTWYASWAKGRFTISKTSSTTVTLQVTGLTAADTATYFCARNVGFSYYDLWGPGTLVTVSS
VL: AQVLTQTPSPVSAAVGGTVTINCQASQSLYNNKNLAWYQQKPGQPPKLLIYYASTLASGVSSRFKGSGSGTQFTLTISGVQSDDAATYYCQGEFSCSSGDCFAFGGGTEVVVK
notes: V regions on human Ig constant parts; also called AB27_184

Target: T1, CD27 expressed on the cell surface …
Assay: cell-based or functional assay
Note: test concentration or dose not given here.

IL-8, cross-linked by F(ab')2 fragment [abs. corr.]	IL-8 [abs. corr.]	Binder
1.25	0.137	B1
2.3	1.94	B2
1.22	0.736	B3
1.86	0.576	B4
2.05	0.495	B5
1.49	0.366	B6
1.28	0.412	B7
1.35	0.294	B8
1.4	0.448	B9
1.12	-0.001	B10
2.2	0.651	B11
1.65	0.302	B12
1.41	0.203	B13
1.22	0.107	B14
1.03	0.408	B15
2.29	0.412	B16

Target: T1, CD27 expressed on the cell surface …
Assay: cellular binding assay, HT1080_CD27 cells

Cellular binding assay [RFU]	Binder
408	B1
219	B2
276	B3
387	B4
326	B5
308	B6
275	B7
335	B8
291	B9
394	B10
373	B11
300	B12
295	B13
283	B14
379	B15
443	B16

Target: T2, CD27 protein (His-tagged, Sino …)
Assay: ELISA on coated His-tagged CD27

ELISA [abs. corr.]	Binder
3.42	B1
3.45	B2
3.46	B3
3.41	B4
3.42	B5
3.41	B6
3.44	B7
3.42	B8
3.45	B9
3.42	B10
3.44	B11
3.45	B12
3.42	B13
3.47	B14
3.44	B15
3.42	B16
